Laboratory results published in the NTF2 design screens of Basanta et al. (2020).

assay: protease stability score; higher = more stable; yeast display proteolysis, trypsin and chymotrypsin;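 note: log10 excess protease needed over predicted unfolded state with 0 meaning unfolded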

Sequence	protease stability score
DERALDVARQLVEALNTGDPETANNLLDKNVHIRVGDKRIHGRKQHSRTVDREKKEIRRHLEKVTNKSKGDKADVDIQFQQTHNGRPTSNQMKMIVEARNGKVKRMSVREHG	-0.469
DERALDVVRKYQEALNSNDPEHLVELIDPNAKLQVGDKTIHGREQLHHEAQKRKDEMRLNVEVHDLRDRGSTVQIHARRSYSHNGRPRSERYVLHATIRGDKIDKMHFQTDS	-0.243
DERALKMIREFEEIRSKGDERQLSEQVDKDADFHVGDKRLTGMDRVASELVQEVRDWRVSVDIKRMSISNGSLDIDAQVRFSHNGKPVTVHLDLKIIVHNGTIKQIEITNQP	0.698
DERALRNWRRLETAVNTNNPDKVQKLMDKDVKYEVGDKTIRGRRHAAQSLVERVNKIHLDIKSVTATDSGDNVRIRLDAVRNHNGRPHRDVLNITVKADNGKIVSVKTTKDG	0.001
DERAQDLVRQWLENVHTGDPSKLREQMDPNAHVVIGDRTFTGRENFAETVHHHLQDQRVQYDTMRIENEGEKARFRYKATVQHNGQPSKHQATAQLTLHNGRIQSLQMESTQ	-0.162
DERAREIVTRYFTALERGDPDKARKLADKDVRISVGDTQINGHDQMARTIDKQKKHMRIRFEDVKIHVNNGRADVKFHAVFEHNGKPERKNRTIIFNVHDGRIKEIQAQDDE	0.321
DERARERVEELLQVENDGDPDKVMEYFDPNAKAEIGDKHIHGRETFRHRLERTNKEMRYHLEVEHIRVNGNNVEMTFRAETEHNGQPSHDRNHAVLHITNGRIKYKRVKRDG	0.178
DERARNVLKRIMHALRENNEEEFKKNADPNVRIHVGDKQYHGREDAARKIMTTLKSMKERIDVKSVDVEGDQIELHADVQVEENGQPDTKEIRVHADIQGDKMRSMKVDDTK	-0.308
DERASELAEKIIKALHTGNPQEVQKLVPPDVHVVYGDKNIHGRENAKKYWDQVLRNWRLNIQDFRIDADGDNVTVELHAEFNVNGQPIQARATVTVNVKNGRVKELNVQLPHEDLRRIRQ	0.619
DERAVEVLERFLEAQKTGNEEDLKKQVDPNARIQIGDKQVHGMDQAARNLVDTYEEIQIDFRIDRMSAHNGNVTVEAHQQINVNGRPFRNSVTMHAYLQGDKAKEINYRVPEKFENEVKS	-0.326
DERAVKRMEKFIKVLINGNPDDLKEYLDENVKVDVGDKRIHGRETFMNEAEKDKRQMSVSLKEVRVDAHNGRLQVNARVHINHNGTPRDKEYVMQAILHNGRIKSMRVQSTG	0.835
DERDADEIAKVFVHNNPKDIERMVDEDVRIIIGDFEVQGREEARKYAEQLEKHIDHNHVRDYRVEGNKVTLDVNVVVNGRSLTFVVHITMHNGHVKEIRVQFTSPEDQKVFKEVVG	0.719
DERDADKVRQLYENEQHGDEHKVMQLVDKDVRFQYGDHEVQGREQQKKLVKERQDKARFELKSVDARDHNGRVRVDVRWVAEVNGRPHEDTIEVVVEIHNGKVKHVEFRVDPDHWTEVMQ	0.152
DERDAETWTRMLEAVEYNNPEEVRKNADPNANFVYGNKTITGREQYAEEMKKEMDDMRKHVKIDDYHVEGDNIHVSAKFEWEVNGTPVRDTVSVQFVAENGKVRSVQYRFDPDSERKEDQ	-0.641
DERDAKKRIKDMIEALHTGDPDEFKRNLPPNARLEYGDKRVHGREQLAREVEKERKRFDHVEVKHIKVDNGRVHVELDLNVNGRTETRELVFNVSNGRVEEVHIRVP	-0.186
DERDANEMMRVIREGDFNKFRQMADENVSAVYGDKTVRGRETIKRIIHRIKRHVDHLKVDSLSTTGDHVTVDAVMHVNGQRVHFVMVVRVQNGHIKEVQFEVRNEEAQKRLEQVLS	1.18
DERDATNAIESVMKAIKEGDPDQMQKNADPNARLQIGDKVYHGRETIVTLLKELAHRVDHLQIDSMHQHNGRVTVSILVQVNGQRRTVNIEAQARDGRLKNMHIDPEFWRQLER	0.781
DERDDRQLNHLFRDLVHGDPDEADKLVDPNVQFTYGDRTYSGNDELQRLIDNWKKELHVTVKDIRVENQGDKVVIHIEMEYTHNGQPTSYKMSVRATAHNGKVKHMNMTSQS	0.103

Sequence	protease stability score
DERDEKRLNETAHRLVKTGDPDQWARLADKDVHVRVGDKKWEGREQLRDLLSRIVKNVDTHQVDTVTAKNGRITIRMVLNINGRNLTIWVTMVIHNGKIKEVEVRVRSEKERKKLES	0.981
DERDHVRRLLNTWLKVVKRNDEDQARRLADPNARVEVGDKTYSGDEKVVELMHKIRQQYDSIDIHLHTVKREGDFIHAKAKMDAKVNGKQEDVTMFIWFKQHNGEWHILQVIIK	0.723
DERDLEEVNRLVKHGNWHEFVKNADKNVRARVGDKRVHGREHFKSLAENWRRRIDHQSIKFVDVQGERAVVTMKMNVNGKTVEVMFSFVVSNGHIKEYEMRARNDDDETRLQEVRS	0.478
DERDLHRQAEDVATAWQTGDSHQFEKLASENVRYVIGDKSYKGKEQVKDMLTEIDKQADHRRVSSMTVHGNKIVVVITVHYNGRTRRLNVVFDVHNGRVRQVDLSIG	0.701
DERDLKEAIDNIRTNNFDELNKMADPNVKAVIGNKTIHGRETINKFLHRLSQQVDHVRIRHYHTRGDHLHVDFKVHFDGKDVKLRIVIRVNNGKITYIQIDVTSEEQLEELDEIVD	1.59
DERDLKEALDLVKTGDFTRIARMADENVKLKVGDKDVHGREDAKRLMSQLEKQVDHYEIDDVTLEGNSASIDAHFNVNGNRIRFVVVIHVHNGKIKHFTIHVRDEEDKDKLRKDDG	0.799
DERDLKTFLDILERNDEDKLQTMADENVELQVGDKTFHGREEFQKYVQHVRDQVDRVDVRDYRIDNGRASVRVIFDFNGKNLDVVMVFSVRNGRVKYFSIQYRDEEVKKMLEEIEG	-0.172
DERDMKAIVRAVKAFRRNNPEEVRENVDENVRIHVGDKEVHGRDQLKRDMEREVKTWRRSIRRISIDNQGDTVNVDIDQEKKHDGDPNREQNVVHFVAQNGKIKSVEQRHDG	0.748
DERDMTKVFDALLKNDEDTVKDQLDEDVQVTVGDKKVHGREQAQETWERLLQRADHINMKSFTTRGDRAVAIVVARVNGHKLEWEYRFKASNGKVEHARIDFRDDDEERKFENALR	0.024
DERDNKVVEEYIKALQRGDPKQARRQADPNARFQVGDTELHGMDDVARKIERETKQWRLEIHHVKVDVKGDKMTIRLDFVVEVNGHPKRMNLTVEAHAHNGKIKEMVMHVDPKQEEELKS	0.188
DERDQELFQNFIKALQTNNPDQVMEQVDPNAEIQYGDRVVRGRHQLRREVEQEHHEMRNDIKVRSIRANNGHVEATFDVVFEINGKPVENRVSVILEMRDGRAKHIEWRIPSEVKEQLKG	0.059
DERDQKHLAELIAKALETGDFKLAQKNVDENVRVKVGDETLHGKDNMQKWAEENHRRVDHLQLNDIKIHNGRVVINMRAVVNGKDFRLDIKIQFDNGKIHVVSIDPRVERHIKS	0.733
DERDQNRKAEEAAHALRDGDERRISEMFDKNAHATVGDQTYTGREEIMKWVHDIKKRYDHVTLHDVKVHNGRADLDMVFNHNGKEDRIRIDIQFQGDKIKHVSVRSK	1.69
DERDQRRRMDQARKILKNNDEEKFNRLLDENARMRVGEKVFHGRRQARTHLKRLHEHVDSIRVNHVSVHNGNVEVVVTMQHNGRYRQIRFDMQVHNGRAKEVKIDTS	0.091
DERDQVKRAKEYLHAFNQGDPDEADKNADPNAKVDVGDHRYHGREEFDKAVKTFKDQVDHIEVKDVKAQGNHASARVTADVNGHTLDMIITVELHNGKVKSYVVKKK	-0.175
DERDRHKQVEEMINAFDDGDEETIKELMDEDVRAQIGNKRVHGQENVSRILKEFRDRADHIQVDTYHVEGDRAQIHAKVEVNGRRIKVSIHVQLENGRFKSFVIEYTDSDKLREMQS	0.909
DERDRRVMEDFFRALEEGDPDTLRQNMDKDAKLVIGDKTYHGREEIATRIVQHIEHAHVRMRVDSIRAHNGRVEVNVTFMVNHNGRPRSDRMNVEAVIRNGKIKELHLVTEK	-0.131
DERDVHRIAEQLIKAMQTGDEKKLTDLADKDAEAQIGDKEIHGNHDFSRAMREFRERVDHIELKDIRVHNGHVSVDIVADINGVQLRFVITMEVKNGKVRQLSVEVRDPEQEKTALS	0.9
